Laboratory results as given in patent publication US7244430.

B1: SC04-361 (scFv)
scFv: EVQLVQSGAEVKKPGESLKISCKASGFSFSTYWIGWVRQMPGKGLEWMGIIYPADSDTRYSPSFQGQVTISADKSISTAYLQWSSLKASDTAMYYCARLRGPYYDFWNGYRETHDAFNVWGQGTMVTVSSGTGGSGGTGSGTGGSTDVVMTQSPDSLAVSLGERATINCKSSQNILDNSDNKNFLAWYQQKPGQPPKLLIYWASARESGVPDRFSGSGSGTDFTLTISSLQAEDVALYYCQQYYNTPITFGQGTRLEIKR
B2: SC04-374 (scFv)
scFv: QVTLKESGPTLVKPTQTLTLTCTFSGFSLSTSGVGVGWIRQPPGKALEWLAVIYWNDDKLYRPSLKSRLTITKDTSKNQVVLTMTKMDPVDTATYYCAHRHRYYDISGYYRLFSDAFDIWGQGTMVTVSSGTGGSGGTGSGTGGSTQSVVTQPPSVSGAPGQRVTISCTGSSSNIGAGYDVHWYQQLPGTAPKLLIYGNSNRPSGVPDRFSGSKSGTSASLAITGLQAEDEADYYCQSYDSSLSGSVFGGGTKLTVLG
B3: SC04-353 (scFv)
scFv: EVQLVQSGGGVVQPGRSLRLSCAASGFTFSNYAMHWVRQAPGKGLEWVAVISYDGGNKYYADSVKGRFTMSRDNSKNTLYLQMNSLRAEDTAVYYCARDFWSGYSMVDSYYYYMDVWGKGTTVTVSSGTGGSGGTGSGTGGSTETTLTQSPGTLSLSPGERATLSCRASQSVSNTFLAWYQQKPGQAPRLLIYGASSRATGIPDRFSGSGSGTDFTLTISRLEPEDFAAYYCQQYGSSLTFGPGTKVDIKR

What follows are binders tested against whole inactivated rabies virus (assay: phage ELISA, coated whole inactivated rabies virus).

Binder | OD 492 nm
B1 | 0.059 OD 492 nm
B2 | 0.056 OD 492 nm
B3 | 0.057 OD 492 nm
